According to patent US20210277110A1 (Janssen / Centocor, published 2021):
Numbering of substitutions follows the chain as printed. Read-outs that look alike come from different tables or passages of the source. Each block holds one binder with its values, some of them ahead of it.

Assays:
[1] = target: T1, Full length human PD1 (huPD1) on cells (human, UniProt Q15116 25-288); assay: flow cytometry, PHA-stimulated Jurkat cells
T1 construct: on T cells of human donors in the MLR and CMV assays (functional); also called PD-1 on Jurkat cells
Procedure: (§1) Jurkat cells were stimulated overnight with 20 ng/ml of PHA, harvested, washed, and checked for viability. The cells were then incubated at 6-10° C. for 45-60 minutes with various concentrations of test antibodies, washed and incubated at 6-10° C. for 45-60 minutes with FITC-labeled goat anti-human IgG. The cells were washed and fixed with BD Cytofix, refrigerated overnight and analyzed on a MACSQuant flow cytometer. The percentage of PD-1 positive cells at each antibody concentration was plotted vs log of the antibody concentration and EC₅₀ values were generated in Prism.

[2] = target: T1, Full length human PD1 (huPD1) on cells; assay: flow cytometry, PHA-stimulated Jurkat cells; remark: listed apart in the source
[3] = target: T2, Extracellular domain of human PD1 (huPD1-ECD) (human, UniProt Q15116 25-169, biotinylated in the ligand inhibition assay (sites not given)); assay: SPR ProteOn, huPD1-ECD; RANGE low replicate
T2 construct: Expressed with a hexahistidine tag or as Fc fusion; also called biotinylated PD-1

[4] = target: T2, Extracellular domain of human PD1 …; assay: SPR ProteOn, captured mAb, huPD1-ECD analyte
Procedure: (§2) Affinity measurements using Surface Plasmon Resonance (SPR) were performed using a ProteOn XPR36 system. A biosensor surface was prepared by coupling a mixture of anti-IgG Fc modified alginate polymer layer surface of a GLC chip using the manufacturer instructions for amine-coupling chemistry. […] The collected data were processed and fitted to a Langmuir 1:1 binding model. The result for each mAb was reported in the format of kₒₙ (On-rate), koff (Off-rate) and KD (equilibrium dissociation constant).
(§3) STDEV were calculated for 3 or more replicates generated for human and cyno proteins. If less than 3 replicates were calculated, RANGE was indicated. RANGE is defined as the low and high values for the replicates tested. For samples in the Table 10 or Table 11 without value indicated in RANGE or STDEV, only one experiment was performed.

[5] = target: T2, Extracellular domain of human PD1 …; assay: SPR ProteOn, captured mAb, huPD1-ECD analyte; remark: listed apart in the source
Procedure: as §2
(§4) STDEV were calculated for 3 or more replicates generated for human and cyno proteins. If less than 3 replicates were calculated, RANGE is indicated. RANGE is defined as the low and high values for the replicates tested. For samples without RANGE or STDEV, only one experiment was performed

[6] = target: T2, Extracellular domain of human PD1 …; assay: SPR ProteOn, huPD1-ECD; RANGE high replicate
Procedure: as §2, §4

[7] = target: T3, Extracellular domain of cyno PD1 (cPD1-ECD) (Macaca fascicularis (cynomolgus)); assay: SPR ProteOn, cynoPD1-ECD; RANGE low replicate
T3 construct: Expressed with a hexahistidine tag or as Fc fusion; also called cynoPD1-ECD; cynoPD-1-ECD
T3 chain: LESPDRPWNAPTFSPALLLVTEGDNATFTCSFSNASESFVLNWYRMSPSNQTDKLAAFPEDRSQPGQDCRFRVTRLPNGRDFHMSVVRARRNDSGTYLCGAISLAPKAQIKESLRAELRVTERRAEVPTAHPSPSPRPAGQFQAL
Procedure: as §2, §3

[8] = target: T3, Extracellular domain of cyno PD1 …; assay: SPR ProteOn, cynoPD1-ECD; RANGE low replicate
Procedure: as §2, §4

[9] = target: T3, Extracellular domain of cyno PD1 …; assay: SPR ProteOn, captured mAb, cynoPD1-ECD analyte
Procedure: as §2, §3

[10] = target: T3, Extracellular domain of cyno PD1 …; assay: SPR ProteOn, cynoPD1-ECD; RANGE high replicate
[11] = target: T3, Extracellular domain of cyno PD1 …; assay: SPR ProteOn, captured mAb, cynoPD1-ECD analyte
Procedure: as §2, §4

[12] = target: T3, Extracellular domain of cyno PD1 …; assay: SPR ProteOn, cynoPD1-ECD; RANGE high replicate
Procedure: as §2, §4

[13] = target: T2, Extracellular domain of human PD1 …; assay: MSD ligand inhibition, competitor coated huPDL1-ECD
Procedure: (§5) The ligand inhibition assay design was MSD (Mescoscale Discovery) based. A MSD plate was directly coated with ligand (cynoPDL1-ECD, huPDL1-ECD or huPDL2-ECD) and incubated overnight at 4° C. The following day, the coating solution was removed and the plate was blocked. […] Depending on the panel of antibodies to be tested, the antibodies were tested as titrations or at a fixed concentration.

[14] = target: T2, Extracellular domain of human PD1 …; assay: MSD ligand inhibition, competitor coated huPDL2-ECD
Procedure: as §5

[15] = target: T2, Extracellular domain of human PD1 …; assay: MSD ligand inhibition, competitor coated cynoPDL1-ECD
Procedure: as §5

[16] = target: T2, Extracellular domain of human PD1 …; assay: as above; remark: listed apart in the source
Procedure: The ligand inhibition assay design was MSD (Mescoscale Discovery) based. A MSD plate was directly coated with ligand (cynoPDL1-ECD, huPDL1-ECD or huPDL2-ECD) and incubated overnight at 4° C. The following day, the coating solution was removed and the plate was blocked. […] Depending on the panel of antibodies to be tested, the antibodies were tested as titrations or at a fixed concentration. […] The mAbs that were positive for inhibition of ligand binding at one concentration were also tested in dose responses for inhibition of various PD-1 ligands.
Select Fabs were cloned as IgG2sigma isotype and characterized for their Jurkat cell binding and cynomolgus PD-L1 ligand inhibition at concentrations 1 μg/ml and 10 μg/ml.

[17] = target: T2, Extracellular domain of human PD1 …; assay: SPR ProteOn, huPD1-ECD; RANGE low replicate; RANGE low replicate
Procedure: as §2, §4

[18] = target: T2, Extracellular domain of human PD1 …; assay: SPR ProteOn, captured mAb; antigen species not given
[19] = target: T2, Extracellular domain of human PD1 …; assay: SPR ProteOn, huPD1-ECD; RANGE high replicate; RANGE high replicate
Procedure: as §2, §4

[20] = target: T2, Extracellular domain of human PD1 …; assay: SPR ProteOn, comparison with PD1B114
[21] = target: T3, Extracellular domain of cyno PD1 …; assay: SPR ProteOn, comparison with PD1B114
[22] = target: T3, Extracellular domain of cyno PD1 …; assay: SPR ProteOn, cynoPD1-ECD; RANGE low replicate; RANGE low replicate
Procedure: as §2, §4

[23] = target: T3, Extracellular domain of cyno PD1 …; assay: SPR ProteOn, cynoPD1-ECD; RANGE high replicate; RANGE high replicate
[24] = target: T3, Extracellular domain of cyno PD1 …; assay: as above
Procedure: as §2, §4

[25] = target: T2, Extracellular domain of human PD1 …; assay: SPR ProteOn, captured mAb, huPD1-ECD analyte; approximation (chi2 > 20%)
Procedure: as §2
STDEV were calculated for 3 or more replicates generated for human and cyno proteins. If less than 3 replicates were calculated, RANGE was indicated. RANGE is defined as the low and high values for the replicates tested.

[26] = target: T2, Extracellular domain of human PD1 …; assay: SPR, human PD-1 affinity
Procedure: as §2

[27] = target: T1, Full length human PD1 (huPD1) on cells; assay: flow cytometry, Jurkat cells
Procedure: as §1

[28] = target: T2, Extracellular domain of human PD1 …; assay: MSD ligand inhibition, competitor coated huPDL1-ECD; remark: listed apart in the source
Procedure: as §5

[29] = target: T2, Extracellular domain of human PD1 …; assay: MSD ligand inhibition, competitor coated cynoPDL1-ECD; remark: listed apart in the source
Procedure: as §5

[30] = target: T1, Full length human PD1 (huPD1) on cells; assay: cell-based or functional assay

T1 sequence (Q15116 25-288 limits assumed): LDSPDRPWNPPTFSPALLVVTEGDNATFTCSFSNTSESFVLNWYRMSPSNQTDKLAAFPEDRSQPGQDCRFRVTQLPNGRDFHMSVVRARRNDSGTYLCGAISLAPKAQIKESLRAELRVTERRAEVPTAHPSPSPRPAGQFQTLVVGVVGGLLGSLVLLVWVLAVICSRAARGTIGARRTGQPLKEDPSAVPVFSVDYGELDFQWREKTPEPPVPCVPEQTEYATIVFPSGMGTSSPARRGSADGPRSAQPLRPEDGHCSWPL
T2 sequence (Q15116 25-169 limits assumed): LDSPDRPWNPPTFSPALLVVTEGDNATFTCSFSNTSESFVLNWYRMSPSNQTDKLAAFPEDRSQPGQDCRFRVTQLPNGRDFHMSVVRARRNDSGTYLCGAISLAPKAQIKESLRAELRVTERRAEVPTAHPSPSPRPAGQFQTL

B3: PD1B131 (antibody, V domains shown)
VH: EVQLVESGGGLVQPGGSLRLSCAASGFAFSRYDMSWIRLAPGKGLESVAYISGGGANTYYLDNVKGRFTISRDNAKNSLYLQMNSLRAEDTAVYYCASPYLSYFDVWGQGTLVTVSS
VL: EIVMTQSPATLSVSPGERATLSCRASQSLSDYLHWYQQKPGQAPRLLIKSASQSISGIPARFSGSGSGTEFTLTISSLQSEDFAVYYCQNGHSFPYTFGQGTKLEIK
notes: Humanized variant of PD1B28; also called PD1H130/PD1L62
Kd [26]: 0.127 nM
koff [26]: 0.000105 s⁻¹
kon [26]: 827000 M⁻¹ s⁻¹
Jurkat cell binding relative to PD1B28 [27]: 100%
IC50 [28]: 0.079 µg/mL
IC50 [29]: 0.096 µg/mL

B4: PD1B132 (antibody, IgG2, V domains shown)
VH: B3 VH with I37V, L39Q
VL: B3 VL
notes: Humanized variant of PD1B28; also called PD1H129/PD1L62
CMV EC50, nM (IFN-γ induction) [30]: 0.07 nM
Kd [26]: 0.096 nM
koff [26]: 8.8e-05 s⁻¹
kon [26]: 914000 M⁻¹ s⁻¹
Jurkat cell binding relative to PD1B28 [27]: 100%
IC50 [28]: 0.055 µg/mL
IC50 [29]: 0.079 µg/mL

More lines, now with the values ahead:

EC50 [1]: 0.69 to 1.32 µg/mL
EC50 [2]: 0.69 µg/mL
koff [3]: 0.0341 s⁻¹
kon [3]: 737000 M⁻¹ s⁻¹
Kd [4]: 101 nM
koff [4]: 0.0418 s⁻¹
kon [4]: 415000 M⁻¹ s⁻¹
Kd [5]: 45.4 nM
koff [5]: 0.0349 s⁻¹
kon [5]: 769000 M⁻¹ s⁻¹
koff [6]: 0.0356 s⁻¹
kon [6]: 800000 M⁻¹ s⁻¹
Kd [7]: 109 nM
koff [7]: 0.0245 s⁻¹
kon [7]: 199000 M⁻¹ s⁻¹
Kd [8]: 79.6 nM
koff [8]: 0.0218 s⁻¹
kon [8]: 225000 M⁻¹ s⁻¹
Kd [9]: 123 nM
koff [9]: 0.0258 s⁻¹
kon [9]: 210000 M⁻¹ s⁻¹
Kd [10]: 138 nM
koff [10]: 0.0275 s⁻¹
kon [10]: 225000 M⁻¹ s⁻¹
Kd [11]: 89 nM
koff [11]: 0.0222 s⁻¹
kon [11]: 250000 M⁻¹ s⁻¹
Kd [12]: 100 nM
koff [12]: 0.0226 s⁻¹
kon [12]: 274000 M⁻¹ s⁻¹
IC50 [13]: 0.04 µg/mL
IC50 [14]: 0.059 µg/mL
IC50 [15]: 0.01 to 0.021 µg/mL
percentage ligand not blocked at 1 µg/ml [16]: 6%
percentage ligand not blocked at 10 µg/ml [16]: 6%
Kd [17]: 42.6 nM
Kd [18]: 166 nM
koff [18]: 0.0304 s⁻¹
kon [18]: 184000 M⁻¹ s⁻¹
Kd [19]: 48.3 nM
B1: PD1B70 (antibody, V domains shown)
VH: QVQLVQSGAEVKKPGSSVKVSCKASGGTFSSYAISWVRQAPGQGLEWMGGIIPIFGTANYAQKFQGRVTITADESTSTAYMELSSLRSEDTAVYYCARGYVRATGMLDYWGQGTLVTVSS
VL: EIVLTQSPATLSLSPGERATLSCRASQSVSSYLAWYQQKPGQAPRLLIYDASNRATGIPARFSGSGSGTDFTLTISSLEPEDFAVYYCQQRSNWPLTFGQGTKVEIK
notes: Tested as IgG2sigma/kappa; also called PD1H107/PH9L3

fold tighter affinity compared to PD1B114 [20]: ~3 fold
fold tighter affinity compared to PD1B114 [21]: ~2 fold
EC50 [1]: 0.03 to 0.24 µg/mL
EC50 [2]: 0.05 µg/mL
Kd [3]: 9.6 nM
kon [3]: 884000 M⁻¹ s⁻¹
koff [4]: 0.00852 s⁻¹
kon [4]: 516000 M⁻¹ s⁻¹
Kd [5]: 9.7 nM
koff [5]: 0.00905 s⁻¹
kon [5]: 933000 M⁻¹ s⁻¹
Kd [6]: 9.81 nM
Kd [7]: 27.7 nM
koff [7]: 0.008 s⁻¹
kon [7]: 285000 M⁻¹ s⁻¹
Kd [8]: 26.8 nM
kon [8]: 349000 M⁻¹ s⁻¹
Kd [9]: 31.3 nM
koff [9]: 0.00917 s⁻¹
kon [9]: 293000 M⁻¹ s⁻¹
Kd [10]: 35.1 nM
Kd [11]: 26.9 nM
koff [11]: 0.00942 s⁻¹
kon [11]: 350000 M⁻¹ s⁻¹
Kd [12]: 27.1 nM
kon [12]: 350000 M⁻¹ s⁻¹
IC50 [13]: 0.019 µg/mL
IC50 [14]: 0.029 µg/mL
IC50 [15]: 0.017 to 0.018 µg/mL
percentage ligand not blocked at 1 µg/ml [16]: 5%
percentage ligand not blocked at 10 µg/ml [16]: 5%
koff [17]: 0.00867 s⁻¹
Kd [18]: 19.2 nM
koff [18]: 0.00896 s⁻¹
kon [18]: 468000 M⁻¹ s⁻¹
koff [22]: 0.00938 s⁻¹
koff [19]: 0.00943 s⁻¹
kon [19]: 982000 M⁻¹ s⁻¹
koff [23]: 0.01 s⁻¹
kon [23]: 301000 M⁻¹ s⁻¹
koff [24]: 0.00946 s⁻¹
Kd [25]: ~17 nM
B2: PD1B11 (antibody, V domains shown)
VH: QVQLVQSGAEVKKPGSSVKVSCKASGGTFSSYAISWVRQAPGQGLEWMGGIIPIFGTANYAQKFQGRVTITADESTSTAYMELSSLRSEDTAVYYCARPGLAAAYDTGSLDYWGQGTLVTVSS
VL: B1 VL
notes: Tested as IgG2sigma/kappa; also called PD1H3/PH9L3
